Literature values, collected in PMC12528386.

Molecular target: BamA (Escherichia coli) (UniProt P0A940)

RcsF (from UniProt P69411)
Kd: 400 nM
